Reference: the supplement of paper PMC9170038

System: MS2 coat protein
Assay: apparent KD of MS2 coat protein; higher = weaker reporter binding
Conditions: Eterna round: R107
How it was run: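 Binding of SNAP-549-labelled MS2 coat protein was measured on designed RNA switches transcribed on-chip from Illumina sequencing clusters. The protein rose in twofold steps from 0.7 or 1.5 nM to 3 µM, with 0.8–1.5 h per step early on and 10–20 min per step later, in 100 mM Tris-HCl pH 7.5, 80 mM KCl, 4 mM MgCl2, without or with constant ligand. Each design's apparent KD is the median of fits to its normalised cluster binding curves.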

[1] = input ligand: theophylline 20 uM
[2] = input ligand: theophylline 2 mM
[3] = input ligand: tryptophan 2.4 mM

Row | Sequence | apparent KD of MS2 coat protein (input ligand: arginine 13.2 mM) | apparent KD of MS2 coat protein (input ligand: none) | apparent KD of MS2 coat protein [1] | apparent KD of MS2 coat protein [2] | apparent KD of MS2 coat protein [3]
1 | GCACCAGGUACGGAUACCAGCUAUAGGCACAGAGGAGGACAUGAGGAUCACCCAUGUGAUGGCCCUUGGCAGCUGUACCUGGUGC [EThB NP+V+V2 #3] | 8.89 nM | 12.9 nM | 23.2 nM | 171 nM | 10.6 nM
2 | GCACCAGGUACGGAUACCAGCUAUAGGUACAGCGGAGGACAUGAGGAUCACCCAUGUGGUAGCCCUUGGCAGCUGUACCUGGUGC [EThB NP+V+V2 #1 +-Same Structure] | 17.7 nM | 14.9 nM | 23.9 nM | 40.4 nM | 15.5 nM
3 | GCACCAGGUACGGAUACCAGCUGCCACAGUUACAUGAGGAUCACCCAUGUGAAAACGUGUAGCCCUUGGCAGCUGUACCUGGUGC [SSThB NP+V+V2 #8 Same Structure] | 198 nM | 459 nM | 186 nM | 14.6 nM | 398 nM
4 | GCAUCCUAGUCGGCCGCCACUGCAACAUGAGGAUCACCCAUGUCUGCAUCUUCAUGAUGCAGUAGCAGGACCGGGACUAGGAUGC [(T1)-(M1)-(M2)-(T)''-(M)'-(T)'-(T2)_Design1_2/18/17] | 69.4 nM | – | 153 nM | 242 nM | –
5 | GCAUCCUAGUCGGCCGCCACUGGUACGAACACCUUCACCCGUGUGCACAUGAGGAUCACCCAUGUCAGGACCGGGACUAGGAUGC [SSTryp B #22] | 9.48 nM | – | 10.9 nM | 8.54 nM | –
6 | GCAUGUGGAGUCUUACUAGAGAGGACAGAUACCAGUAAGAUGUGAUACCCUUGGCAGCUGCGAUUUACAUGAGGAUCACCCAUGU [X-TheoA-ms2@67] | 19.2 nM | – | 21.4 nM | – | 24.7 nM
7 | GCCAGUCAUAGCAGGGCAAAUAUACUCGAAGGAGCGUCAUAGUAGGCAGGUAGGUCGCGAGACAUGAGGAUCACCCAUGUAGAGA [fffmullin] | 30.2 nM | 47.4 nM | 59.8 nM | 48.3 nM | 32.8 nM
8 | GCCGGACUUUCGGCCGCCACUGAGAGAGUCGUGUGAACAUGAGGAUCACCCAUGUAAUAUAUAUACAGGACCGGGAGGGUUCGGC [4.S] | 10.5 nM | 12.2 nM | 18.7 nM | 11.9 nM | 12 nM
9 | GCCUAGCAUCGAAGGAGCGCUGGUGAAACUGACUAAUAUACAUGAGGAUCACCCAUGUGCUAGCAGGUAGGUCGCGAUGCUAGGC [SSAB NP+V+V2 #11] | 20.4 nM | 21.7 nM | 27.2 nM | 25.5 nM | 21.1 nM
10 | GCCUCCAGCCGAAGGAGCGCUAGAAGGUGACAUGAGGAUCACCCAUGUGUGUGAUGUGGCUAGCAGGUAGGUCGCGGAGGAGGUA [Exclusion - Arginine B (Freestyle 21)] | 118 nM | 99.7 nM | 134 nM | 111 nM | 92 nM
11 | GCGACCCUGAGAUCCUACGUAACGUGAACACGAGGACCGGUACGGCCGCCACUCGAGAGAACAUGAGGAUCACCCAUGUCUGAGC [e-trypA-0] | 17.3 nM | – | 37.2 nM | 30.8 nM | –
12 | GCGCGGCGAGUGCGGCGUGUUCCGCUCCGUCGAGGACCGGUACGGCCGCCACUCGACAUGAGGAUCACCCAUGUCGCCGCGCGUC [Exclusion - Tryptophan A Attempt #1] | 12.6 nM | – | 48.6 nM | 19.2 nM | –
13 | GCGUACGAUCGGGAUACCAGACAUUGCCGUUAGGGUGAACCUGAGGAACACCCAGGUUUUGUCCCUUGGCAGCCCGAUCGUACGC [ETB NP+V+V2 #8 Diff Apt, Same Structure] | 20.6 nM | 19.6 nM | 65.8 nM | 136 nM | 27.5 nM
14 | GCUAGGUCUACGGCCGCCACUAGACGUGGGUAAGACAUGAGGAUCACCCAUGUACUACGGGCGAAUAGGACCGGGUAGACCUAGC [SSTB NP+V+V2 #14 Same Structure] | 173 nM | 321 nM | 499 nM | 668 nM | 39.1 nM
15 | GCUAGGUCUACGGCCGCCACUAGACGUGGGUAAGACAUGAGGAUCACCCAUGUACUACGGGCGAUUAGGACCGGGUAGACCUAGC [SSTB NP+V+V2 #16 Same Structure] | 50.5 nM | 309 nM | 527 nM | 646 nM | 66.9 nM
16 | GCUGCAGCUACGGCCGCCACUGUUACGUGAGACAUGAGGAUCACCCAUGUUGAUGUUUUACGGUAUAGGACCGGGUAGUUGUAGU [E 1.0] | 9.08 nM | – | 11.8 nM | 10.3 nM | –
17 | GCUGCUUUGGGAAGGAGCGCUGUGGUAGUGUGGCGGACAUGAGGAUCACCCAUGUGCCUGCAGCAGGUAGGUCGCUUAGGGCAGC [EAP NP+V+V2 #16] | 37.6 nM | 24.5 nM | 37.9 nM | 40.1 nM | 36.5 nM
18 | GCUGUUGCGGUGAGGUAUCCGGCUGUGGAAGGAGCGCGGAAUGCCGCAGGUAGGUCGCCACAUGAGGAUCACCCAUGUCGAUAUA [Atzalama] | 25.6 nM | 27.2 nM | 45.2 nM | 35 nM | 21.2 nM
19 | GGACCAUGGCGCGAUACCAGCUUGAGUGUACUGGCCAGGUACAUGAGGAUCACCCAUGUAAGCCCUUGGCAGCGCGCCAUGGUCC [#1 Exclusion - Theophylline B Attempt #24 (HarryS)] | 10.4 nM | 10.3 nM | 16.1 nM | 36.5 nM | 10.7 nM
20 | GGACUAACUGGAAGGAGCGACGCGCAGAAACUGCAAUUUCCUCCACACGAGGAUCACCCGUGUCAGGUAGGUCGCCAGUUAGUCG [ArgBX 29] | 19.1 nM | 16.7 nM | 24.7 nM | 21.1 nM | 18.6 nM

Row | Sequence | apparent KD of MS2 coat protein (input ligand: arginine 13.2 mM) | apparent KD of MS2 coat protein (input ligand: none) | apparent KD of MS2 coat protein [1] | apparent KD of MS2 coat protein [2] | apparent KD of MS2 coat protein [3]
21 | GGAUAGGACACGGCCGCCACUACCUAGGAUACUAGCAACAUUUGGGUAUAUGAGGAUCACCCAUAUAGGACCGGGUGUCCUAUCG | 48.5 nM | 75.8 nM | 88 nM | 95.2 nM | 102 nM
22 | GGAUAUGGUGAAAGAGAGAAGAGAGAUGAUACCAGUAAGAGAAGAUGCCCUUGGCAGCAUAGAGACAUGAGGAUCACCCAUGUAA [solution] | 12 nM | 22.9 nM | 25.2 nM | 24.3 nM | 15.6 nM
23 | GGCACAUAGUCGGCCGCCACUAGAAUAAGAAGGGAAAACAUGAGGAUCACCCAUGUAAAAGGGACUAGGACCGGGACUAUGUGCC [Shrew] | 14.5 nM | – | 18.2 nM | 17 nM | –
24 | GGCACCGGGCGAAGGAGCGUGAAGACAUGAGGAUCACCCAUGUAGAGGCCCGGACAGGGUUCGCAGGUAGGUCGCGCGCGGUGCC [#1 Same State - Arginine B Attempt #8 (HarryS)] | 21.2 nM | 14.5 nM | 22.3 nM | 16.8 nM | 16.9 nM
25 | GGCAGUCAUAGGAGGGCAAAUAUACUCGAAGGAGCGUCAUAGUAGGCAGGUAGGUCGCGAGACAUGAGGAUCACCCAUGUAGAGA [wwzmullin] | 20.2 nM | 66.9 nM | 106 nM | 125 nM | 90.5 nM
26 | GGCCCGGACUUGGAAUGGGUGUUUCCCUCACGAGGACCGGUACGGCCGCCACUCGAAGACAUGAGGAUCACCCAUGUAGUCGACA [Qudirate] | 31.2 nM | – | 78 nM | 138 nM | –
27 | GGCCCGGACUUGGAAUGGGUGUUUCCUUCACGAGGACCGGUACGGCCGCCACUCGAAGACAUGAGGAUCACCCAUGUAGUCGACC [Soleti] | 20.3 nM | 21.7 nM | 100 nM | 41.1 nM | 18.2 nM
28 | GGGACAUGAGGAUCACCCAUGUACCGGUCCCGAGGACCGGUACGGCCGCCACUCGAUGACCUCAUAGUCUGCUGGAGCAGCAGAC [Usesedarin] | – | 54.6 nM | 108 nM | 84.3 nM | 330 nM
29 | GGGCAAGAGGGAAGGAGCGUCGGCUGGGUAACAUGAGGAUCACCCAUGUAGCACAUGGUGUGGCAGGUAGGUCGCCCUCUGCCCU [SS-ArgB9] | 71.1 nM | 102 nM | 153 nM | 133 nM | 103 nM
30 | GGGCCCGGGCGCGAGCCCGGGCCCAUUGAUACCAGUGAAAAUAUACGCCCUUGGCAGCGAAUCCUAACAUGAGGAUCACCCAUGU [5.A] | 37.7 nM | 37.2 nM | 65.7 nM | 70.9 nM | 33.4 nM
31 | GGGCCCGGGCGCGAGCCCGGGCCCAUUGAUACCAGUGAGAGAGAGCGCCCUUGGCAGCGAAUCCUAACAUGAGGAUCACCCAUGU [5.N] | 49.5 nM | 51.6 nM | 84.6 nM | 84.3 nM | 41.6 nM
32 | GGGCCCGGGCGCGAGCCCGGGCCCAUUGAUACCAGUGAUAUAUAGCGCCCUUGGCAGCGAAUCCUAACAUGAGGAUCACCCAUGU [5.I] | 23.7 nM | 38.8 nM | 65.2 nM | 53.2 nM | 42.7 nM
33 | GGGCCUACCUGAAGGAGCGACAUGAGGAUCACCCAUGUCUCCCGUUAUGGGAGUUCUUUAGGUCAGGUAGGUCGCAGGUAGGGCC [#1 Exclusion - Arginine B Attempt #4 (Inspired by Omei)] | 15.3 nM | 12.6 nM | 17 nM | 14.1 nM | 14.1 nM
34 | GGGCGACAUGAGGAUCACCCAUGUGUCGAUACCAGUAUGAAUUUCUACCCUUGGCAGCGACGACACGGUUAUUUGUGCACUUCGA [theeternabot_sameState_MS2_Theo_A_5] | 77.5 nM | – | 114 nM | – | 95.6 nM
35 | GGGCGCUAUCCCGCGAGGGAUAGCGUUCGACGAGGACCGGUACGGCCGCCACUCGAACGAGUGGUGACAUGAGGAUCACCCAUGU [Naa] | 28.7 nM | 53 nM | 56.7 nM | 59.4 nM | 49.7 nM
36 | GGGCGCUAUCCCGCGAGGGAUAGCGUUCUUCGAGGACCGGUACGGCCGCCACUCGAACGAGUGGUGACAUGAGGAUCACCCAUGU [Paa] | 35.6 nM | 63.6 nM | 75 nM | 81.1 nM | 58.7 nM
37 | GGGCUGUGACCAGGAAAUGGUCACAGCCCACGAGGACCGGUACGGCCGCCACUCGAAAGUACAUGAGGAUCACCCAUGUCGGUGG [#1 Same State - Tryptophan A Attempt #8 (HarryS)] | 25.9 nM | 34.1 nM | 30.6 nM | 37.9 nM | 50.9 nM
38 | GGGUACAUCGCGGCCGCCACUCGUGUAAAUACAUGAGGAUCACCCAUGUCGAUGGAGACAUCGGAGAGGACCGGGUGAUGUACCG | 110 nM | 81 nM | 114 nM | 81.5 nM | 46.7 nM
39 | GGUAUGUAUUCGGAAACGAAUGCAUACCAUCGAGGACCGGUACGGCCGCCACUCGUGGCUGAUCAACAUGAGGAUCACCCAUGUA [Ex Tryptophan A 1] | 36.1 nM | 85.9 nM | 94.3 nM | 83.4 nM | 50.4 nM
